Experimental data taken from a protein production outcome set (Wang et al. 2014).

Experiment: label from the status in PepcDB records

Row | Sequence | protein production
1 | MSANVQEAANAAIEPASFVKVPMPEPPSSLQQLINDWQLIKHREGGYFKETDRSPYTMEVEKPVNGGSGNTEMVTRNQSTLIYYLLTPDSPIGKFHKNINRIIHILQRGKGQYVLVYPDGQVKSFKVGFDYKNGEVSQWVVPGGVFKASFLLPNEEFDNGFLISEVVVPGFDFEDHTFLKGEDELKHLVGPEKAAELAFLA | not failed
2 | MSAQSSVQPELAVRQWRTPLELGFLGVVWGCSFLFMRVAAPKFGTVVLVEIRLALGALVLLPFLWLARERFPLHRWPMLAAIGVLNSALPFLLFAWGAQHAPAAVGAICNAMTVLFTALIAFLFFGERIGTRRALALLVGFIGVLVLATGKSAGLSVGPAALAGATASLLYGIGYNLVKRHMGDLPPAASAASTLGCSALLLAPLAWWQWPTTPVPAVAWACATALGVVCTGLAFLMYYRLIQRIGPARASTVTYLVPVFGALLAWSLLGEPLTWTMLVAAVLILGSVAFSQRAR | failed
3 | MSAQVPRELLQLREQVRRQPGDFVAWLMLADAELGMGVTAAGETAVQRALALHPGHPEAVARLGRVRWAQQRHAEAATLLQQASDLVPQHPGIALWLGHALEDAGQPEQAAAAYTRAHKLLPDEPYITAQLLNWRRRLCDWRELDSLAAQVRTAVTQGEAAVEPFAFLSEDASAAEQLACARTRAQAIASSVHPLPAATLRSRGTLQLGFVSNGFSAHPTGLLTVALFEALRRRQPDLQVQLFATSPDDGSDIRARLAQATRMHDVTALGHLATAQHIRNQGIDLLFDLRGWGGGGRPEVFALRPAPVQLNWLAYPGTSGAPWMDYVLGDAIALPTWLEPFYSEQVLRLPRAFQPSDTSRTVAEAPSRAQCGLPDHAVVLCCFNNSYKLNPRSMARMLAVLRAVPGSVLWLLSGPGEADARLRAAAQAQGVHAQRLVFMPKLPHPQYLARYRHADLFLDTHPYNAHTTASDALWAGCPVLTTPGQTFAARVAGSLNHRLGLDEMNVADDATFVAKAIELASDAEALRGVRAQLAEQRLRSGLFDMDGFADDLAALLRGIAQRRGWLGV | failed
4 | MSASTSSHRPIKGILKNKSSSGSSVATSGQQSGGTIQDVKRKKSQKWDESSILAAHRATYRDYDLMKANEPGTSYMSVQDNGEDSVRDVEGEDSVRGVEGKEATDASDHSCEVDEQESSEAYMRKILLHKQEKKRQFEMRRRLHYNEELNIKLARQLMWKELQSEDNENEETPQGTNEEKTAAEESEEAPLTGGLQTQSCDP | failed
5 | MSAVATFSVALANEVATVRLMAEVALLIGPGDVVTLSGDLGAGKTAAARAMIRYLADDDALEVPSPTFTLVQTYDLPPYPLLHADLYRVEDPSELEEIGLSPLPDGTVALIEWPERAGAALPEDRIDIALSHRPALGPSARAAEITGHGKAVKQVERLAALRSFIETAGYADAERRHMPGDASTRSYARLQRGAESVILMNAPRRPDGPALYAGKSYSAAVHLAEDVRPFVAIGQGLRERGFSAPAIHHADLDAGFLITEDLGRIGFVEGDPPAPVVARYQAATDMLAALHAKPLPDHLPLSTRESYAVPTFDEAAMMIEVGLMPEWYLPDRGAPPSEALRVEFVALWRKLLAGIATAPRTWVLRDYHSPNLIWLEDRPGIERVGVIDFQDTVLGPAAYDVVSLLQDARIDVPEAAELSLLGRYVKARLAADPEFDAPGFARLYAVMSAQRNTRLLGTFARLNRRDGKPQYLKHQPRVWAYLARSLAHPALAEVRAWYRDHVPPPL | failed
6 | MSAWFELKQYGSGACRFLLKTKEAQTMLQSDRYPCRDSAEAALGLFRAHCASPERYVKKISSGGKPFFKLKSGKEVILVSHLYDSEATLESAISAIASAGTTERVEHIQL | failed
7 | MSAYEAVRIRLDPTPRQTRLLESHAGGARFAYNLMLAHVRRQISLGEKPDWTLYAMRRWWNEWKDEIAPWWRENSKEAYGSAFEWLSQALRNWSDSRKGRRAGRRVGWPKYKSKRSSVPRFAYTTGSFGLIEDDPKALKLPRIGRVHCMENATERVHGRRIVRMTVSRHAGFWYAALTVERPTESVPAKNRKQKNRNRQVGVDLGVRTLATLSDGTTFPNPRNYVRTQRKLRHAQQSLSRRDRGMSHGCGSKRYNRALERVRRIHARIAAQRADNIGKLTTWLADNYSDISIEDLNVQGMSHNRRLAKHVLDADFREFRRQLEYKTARAGTRLHVIDRWYPSSKTCSNCGTVKAKLSLSERVYHCGKCGLVIDRDVNAAINIQVAGSAPETLNARGGSVRQTRLECGTMRHPAKREPSGGDSRVRLGAGLGNEAMQMTSL | failed
8 | MSAYIAPSQIAQRQLEYFNGKHVLVAGEVEDMFPLELTAHCESVEVFTSNYSYFRQIRHSDKIKSHFGSEFDVETQADMLLLYWPKAKAEAEYLLAMLMAKLGVNTEIVVVGENRSGVKSIEKMFKEYGPVNKYDSARRCSFYWGNCLNEPKPFNQEEWFKSYTVTLGEQSLTVKSLPGVFSHGEFDLGSRLLLETLPNLSGKVLDFGCGAGVLGAFMAKANPEIAIEMCDINAYAITSSQATLEANGLSGRVFASDIYSDTANDYRFIISNPPFHSGLDTNYNAAETLLGHAPQHLSNHGEMIIVANSFLKYPPIIENAFNNCETLNKTNKFSIYYAKKS | failed
9 | MSAYIIETLIKILILVAVFSALGGFATYIERKVLAYFQRRLGPCYVGPFGLLQVAADGIKLFTKEDIIPQGANKFIFTLAPIIAMVSAFVSMAPIPFFPNFTLFGYEIKPLISDINIGFLFFLAVGSAGIYAPILAGLASNNKYSLIGSARATIQLLSFEVVSTLTILAPLMVVGSLSLVEINHYQSGGFLDWLVFKQPLAFVLFLIASYAELNRTPFDLLEHEAEIVAGYCTEYSGLKWGMFFLAEYAHLFAFSFVISIVFFGGFNAWGFIPGGIAILIKAGFFVFLSMWVRATYPHVRPDQLMDMCWKIMLPLALLNIVLTGIIILI | failed
10 | MSCGKPQETYSTSSILTREQFEIQHQEEDTIGEQVIFIDGVAYNSRGFRVCGAPNQRGGFCARFGQCPFHKDKVTTFKMSEETVSEFPRQLLTESCNLLQNNERKFKNAWKLDEHHRFLVALKKFGHGNWRQIADYVETRSASQCQSHAQKYYLRKRKLASNANLKRSIFDLIDEDTLSVEIGEEDTWNIIQKCPSKEAQGSVRSRSKTLQRMSTDSSVESYPIRELSTVDSELSTLQTYKQASFFIRIFRNGVFSHGVDLELPNSLASFFIKAAQLLDMSVATKAYTRSGFEISSLHEVCPGDILWISSGEEFIFPSPVQYIET | not failed
11 | MSDAAISGRREQGWLAGLGNWIPARFRRDIPVVPVVRLSGTIGAVTPLRPGLTLAGVAKLLDRAFSTRNAKAVALAINSPGGSPVQSRLIYLRIRALAAEKKLPVYAFVEDVAASGGYMIACAADEIYCDPSSILGSIGVVGGGFGFQELIRKIGVERRLYTAGERKAQLDPFLPEDPQEVARLKVLQQEIHALFIALVKESRGTRLKGEESKLFTGEYWAGATSVSLGLADSIGDLRAVLRGKFGDKVRTPLISPPTGLLANLSRKSSGAGASLDGVAALPESMITALETRAIWAKYGF | failed
12 | MSDEWKSETPKANDDKSWKLLEKAVLAGVQEQRRARRWGIFFKSLTFIYLFVVLLAFSPFGSLEKSASRSGSHTALIEVKGMIADDEPASADNIVTALRAAFKDEGTKGIVLRINSPGGSPVQSGYIYDEIRRLRGEHPNVKVYAVISDLGASGAYYIASAADQIYADKASLVGSIGVTAASFGFVGTMEKLGVERRVYTSGEHKSFLDPFQPQKPEETQFWQQVLDTTHKQFIDSVKKGRGDRLKVEGHPELFSGLVWSGEQALQLGLIDGLGNASYVAREVVKEKKIEDYTVQESPFDRFAKKFGASVAERLALWMGWQGPVLRLEHHHHHH | failed
13 | MSDIELLETLAGTDQPRVMATIIHVEGSSYRKEGAMMLFQEDGTQVGLLSGGCLETDLTIKAQKVWQEQLPRTVVYDLSSEDDLSWGQGSGCNGTISVLLEPVDLKLRQHLKRVYDYLCAGKSVFHVKKLSTSGAVLEYAFILDESVYFGEWHSGHPVEWIRKIDENEEPLMFTHIYSPKERLIIFGAGPDVPPLVTFASNVGFYTVVTDWRPNQCEKHFFPDADEIIVDFPADFLRKFLIRPDDFVLIMTHHFQKDQEILHFLLEKELRYIGILGSKERTRRLLQNRKPPDHLYSPVGLSIDAQGPEEIAISIVAQLIQLIRSRKQASSPFSYLFQPESCKH | not failed
14 | MSDIPSDLHYTAEHEWIRRSGDDTVRVGITDYAQSALGDVVFVQLPVIGTAVTAGETFGEVESTKSVSDLYAPISGKVSEVNSDLDGTPQLVNSDPYGAGWLLDIQVDSSDVAALESALTTLLDAEAYRGTLTE | not failed
15 | MSDIVLEVQSLHVYYGAIHAIKGIDLKVPRGQIVTLIGANGAGKTTTLSAIAGLVRAQKGKIIFNGQDITNKPAHVINRMGIALVPEGRRIFPELTVYENLMMGAYNRKDKEGIKRDLEWIFSLFPRLKERLKQLGGTLSGGEQQMLAIGRALMSRPKLLMMDEPSLGLAPILVSEVFEVIQKINQEGTTILLVEQNALGALKVAHYGYVLETGQIVLEGKASELLDNEMVRKAYLGVA | not failed
16 | MSDLEVQVPTAFDPFADANAEDSGAGTKEYVHIRVQQRNGRKSLTTVQGLKKEYSYSKILKDLKKEFCCNGTVVQDSELGQVIQLQGDQRKNVSTFLVQAGLVKKDNIKIHGF | failed
17 | MSDLGAYIHAVETASSASALREAVIQLAQQNSTAAIPTLIAVLGYNNPAAAQAAVEGLIALGDAVVEPLLAQLDGYNYGARAYGVRVLGSIGHPAALQVLLAAAQSDFAPSVRRAATKALGTLRWQLIPEETVREAQLKEALAVLQRNSKAADWAVRYAVGVALDYLHQQAAARGIREAVRSLLNHLSDRDPDIVVRSRCQLALQRDSLSMHT | failed
18 | MSDNSKTRVVVGMSGGVDSSVTALLLKEQGYDVIGIFMKNWDDTDENGVCTATEDYKDVVAVADQIGIPYYSVNFEKEYWDRVFEYFLAEYRAGRTPNPDVMCNKEIKFKAFLDYAITLGADYVATGHYARVARDEDGTVHMLRGVDNGKDQTYFLSQLSQEQLQKTMFPLGHLEKPEVRRLAEEAGLSTAKKKDSTGICFIGEKNFKNFLSNYLPAQPGRMMTVDGRDMGEHAGLMYYTIGQRGGLGIGGQHGGDNAPWFVVGKDLSKNILYVGQGFYHDSLMSTSLEASQVHFTREMPEEFTLECTAKFRYRQPDSKVTVHVKGEKTEVIFAEPQRAITPGQAVVFYDGEECLGGGLIDNAYRDGQVCQYI | not failed
19 | MSDSLHTPEEPRPGPGEQLAHAHDGSLRHTRAKGEPRFPDGPKADPAGSHFERRIRSFQPRRSRVTAGQADALQRLWPKWGLDIDGHALDLTELFGNTHPVVLEIGFGMGEATARMAAEDPDTGILAVDVHTPGQGNLLNLADQHGLTNIRVANGDAIILLREMLPPDSLDGLRVYFPDPWPKKRHHKRRLIQPEFLTLAATRLRPGALVHCATDWEPYAEQMLDVLTAHPDFENTQPTGGYAPRPGFRPLTRFEGQGLDKGHVVNDLLFRRVQPRDQHRDLPPSATEAD | failed
20 | MSDSWTERWNDRYSNEIFAYGEKPNNYLKAQLENLQPGTILFAAEGEGRNAVFAACLGWDVQAFDISSEGKKKAFQLAEKNQVTIAYQVGQLETLGYTAGQFDALALIYAHFPATVKSAYHRILSSYVRSGGYIIFEAFSKKHLDYLAKNEQVGGPKEFDMLFSIEEIKADFPDYEILELEEKEIELNEGQFHNGTGSVIRFTGRKKLEHHHHHH | failed
21 | MSDTPYSLKGPARPTASTRNGKGRQDARWAERRREAAIAKLKAELAAQAALIAGQEVALAHSRKIFDRASVAARIGVWECSLPGEQLHWTDVVYDLFDLPRGAALDRSEIIKCYPAESRKALDSLRSRAIAERSGFTLDAEITTFAGHSRWIRITATVECEADVPVRIFGMKQDITEEKILSDRMRYLAEFDPMTGLANRARFQARLAQPDASRPLGALLLIDLDGFKAVNDTFGHVVGDECLKAAAERLAEGCGEADLVARVGGDEFAVLLGSHLDRAAVSGVAREIIEGMGKPVVVRGQSLRLGASVGIAFAGQGAPCDLFAQADTALYAAKAAGRNTFRIFKAEAGGKDRSAAA | failed
